Test system: MS2 coat protein
Assay: apparent KD of MS2 coat protein; designed switch direction (-1 OFF switch, 1 ON switch): 1; higher = weaker reporter binding
How it was run: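 The reported apparent KD is a per-design median over clusters, from curve fits of normalised cluster fluorescence. Protein titrations used SNAP-549-labelled MS2 coat protein, doubled from 0.7 or 1.5 nM to 3 µM, in Tris-HCl pH 7.5 buffer with KCl, MgCl2, BSA, DTT, tRNA and Tween-20, with no input, 200 uM small-molecule ligand, or an oligonucleotide input. The RNA switches were transcribed on Illumina chips by stalled E. coli RNA polymerase.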

[1] = input ligand: microRNA oligo, concentration not stated
[2] = Eterna round: R95, input ligand: FMN 200 uM
[3] = Eterna round: R95, input ligand: microRNA oligo, concentration not stated
[4] = Eterna round: R95, input ligand: none

Sequence	apparent KD of MS2 coat protein (input ligand: FMN 200 uM) [nM]	apparent KD of MS2 coat protein [1] [nM]	apparent KD of MS2 coat protein (input ligand: none) [nM]	apparent KD of MS2 coat protein [2] [nM]	apparent KD of MS2 coat protein [3] [nM]	apparent KD of MS2 coat protein [4] [nM]
CGUCCGGCCUGAGCUGGACGGAGGCAUGUACAUGAGGAUCACCCAUGUUCAUGUGCAGGCUUUUUGCUCGUCUUGUG [JL-shm-2.07 JL mod] (Eterna round: R96, puzzle: Sensor for hsa-mir-208a)	62.8	10.6	57.8			
AGAAGACAUGAGGAUCACCCAUGUACCUCAUAAGGAGAGAGCGAGGAUAUGUAGAGAGAGAGGGAGCAGAAGGUGUGGGAGGAA [Default title] (Eterna round: R96, puzzle: Same State NG 3)	283	192	262			
UUGGUUCUCGUAGGAUAUGUAGGAUAUUCCUACAUGAGGAUCACCCAUGUUCGCAUGGAAGAAGGACAGAAGGACGAUCACCAU [pwkr ssNG2 2FMN + 1F5.18] (Eterna round: R96, puzzle: Same State NG 2)	54.8	1.88	14			
UUAAUAAUGUAAGGAUAUACAUGAGGAUUUCUCGUAGAAGGUACAUUACAUGAGGAUCACCCAUGUGGGUGUCAGAAGACGCCA [Mat - Same State NG 1 - JL mod - D13] (Eterna round: R96, puzzle: Same State NG 1)	143	953	275			
CGCCAGAGAGCAGGAUAUGGGCCACGGCCUAAGGGCUGUGAACUCACAUGAGGAUCACCCAUGUCCCAGAAGGGCUCCUGGCUA [Temabeanan] (Eterna round: R96, puzzle: Same State NG 2)	112	1020	1180			
UCGGGCGUACUUGCUGACAUGAGGAUCACCCAUGUAAAUGGGAAGGAUAUGGUUCCGUUUCGGUACCAGAAGGUCCUGGGUGCU [salish99_SSNG3_r04_310] (Eterna round: R96, puzzle: Same State NG 3)	459	748	1030			
AAAGCACAUGAGGAUCACCCAUGUGGAAAUAACACAGGAUAUCUGACCGAAACUAAGGCGAGAGAAGGGUGACCUA [Engeerbi] (puzzle: Same State 1)				148	62.8	78.9
GCUCGAUGAGCGUUUUACAUGAGGAUCACCCAUGUUCGUGGGCAGGAUAUUUACGUGCGGUGUGUAGAGAAGGGCCCAUCGAGC [SameState NG3 #69] (Eterna round: R96, puzzle: Same State NG 3)	87.1	247	529			
CUGAGAAGUCAAGGAUAUCACGUCGAUUAGACGUGAGAAGGUGAUCAUUACAUGAGGAUCACCCAUGUGUUACAUGGAACUCAG [Brourd's SSNG1/1-A2 mod 7] (Eterna round: R96, puzzle: Same State NG 1)	672	659	762			
AAAAGCGACGUAGGAUAUCCUCUACAUGCGUAAGGAGAAGGAUGCGCAACAUGAGGAUCACCCAUGUAAAACCAGCACUACUGG [Zalaendi] (Eterna round: R96, puzzle: Same State NG 1)	53.1	32.6	44.9			
AUAAAACAUGAGGAUCACCCAUGUCAACAAAGUCGAGGAUAUGGGCAAAUAAAUUAAGAACCAGAAGGCGAAUAAU [salish99_ss1_r3_021] (puzzle: Same State 1)				36.9	236	313
UUUGGGUGGCUGGAGGAUAUUCUUGUGGUUACAUGAGGAUCACCCAUGUGCCGCGCGGUGCGCGAGGAGAAGGCUGGCGGCCGUU (puzzle: Same State 2)				21.7	48.3	65.7
GCGUGAGAGAUAGGAUAUCGUGUACCUACAUGUGACAUGAGGAUCACCCAUGUGGUAAGUAUGAGCGAGAAGGAUCCGAUAUGU [salish99_SSNG2_r04_1003] (Eterna round: R96, puzzle: Same State NG 2)	28.2	54.7	63.5			
CGUCGUUUGAUAGGAUAUCGCUUUACAUGAGGAUCACCCAUGUUUACCACGCUGGUUUUUCUUUCCGAGAAGGAUUCUGAUGUU [salish99_SSNG02_r04_023] (Eterna round: R96, puzzle: Same State NG 2)	35.7	25.2	35.9			
UGAAUGGUGAUAGGAUAUACAUGAGGAAUCCUCGUAGAAGGAUCACGACAUGAGGAUCACCCAUGUAGCCGUCCGUAGACGGCA [JL SSNG1 1.23] (Eterna round: R96, puzzle: Same State NG 1)	99.7	778	242			
UUCUCACAUGAGGAUCACCCAUGUGAGCCUCUGUGAGGAUAUCCGACAUAAUUAAUUGAAGGAGAAGGUACACGAG [Leer] (puzzle: Same State 1)				130	4.78	24.9

Sequence	apparent KD of MS2 coat protein (input ligand: FMN 200 uM) [nM]	apparent KD of MS2 coat protein [1] [nM]	apparent KD of MS2 coat protein (input ligand: none) [nM]	apparent KD of MS2 coat protein [2] [nM]	apparent KD of MS2 coat protein [3] [nM]	apparent KD of MS2 coat protein [4] [nM]
UGCUGUGUGGUAGGAUAUGUAGGAUAUGUACAUGAGGAUCACCCAUGUCAGUUAAUGACAGAAGGAUAGAAGGACCAGAGGGCU [pwkr ssNG2 2FMN 1F5s.3] (Eterna round: R96, puzzle: Same State NG 2)	254	205	249			
GAAGGAUGAGCGUAGGAUAUAGGAGGAGUGACAUGAGGAUCACCCAUGUAGUAGGAGGGAGGGUACUAGAAGGACGAGGAAGAGG [JR_SS2_Sub068] (puzzle: Same State 2)				67	32.2	57.4
AGUCCAGCCUGAGCUGGACAAAAGCAUGUACAUGAGGAUCACCCAUGUUCAUGUACAAGCUUUUUGCAAGUCAAAAG [Mat - hsa-mir-208a - Mod of JL - 75] (puzzle: Sensor for hsa-mir-208a)				337	25.6	710
AGUCCAGCGAAAGCUGGACAAAAGCAUGUACAUGAGGAUCACCCAUGUUCAUGUAUAAGCUUUUUGCUCGUCUUAAA [JL mod - D95 - 12] (puzzle: Sensor for hsa-mir-208a)				18.1	9.2	15.9
GGCUAUCGCGUACGAUAGCUUAAGCAUGUACAUGAGGAUCACCCAUGUCAUGUACAAGCUUUUUGCUCGGCUUAUUG (puzzle: Sensor for hsa-mir-208a)				119	14.3	132
UCUUGGUUUUUGCUCGUUUUUUGUGUUGAACAUGAGGAUCACCCAUGUAUUGUACAAUCCAGUUUAAUAAUGGUCCG [JMF 49] (puzzle: Sensor for hsa-mir-208a)				105	87.3	130
AACCGACAUGAGGAUCACCCAUGUAAAUGCAGGGCAGGAUAUCAAUCGGGAGGCCGAAAAUGAGAAGGGCCUAAAA [Onedte] (puzzle: Same State 1)				46.9	250	839
ACUUAGUACAAUUUAGAUCUACAUGAGGAUCACCCAUGUACUGAGGAUAUCAGCUCGAUUAGAGCUGAGAAGGCAGAAGUACUU [SSNG3/8-A2] (Eterna round: R96, puzzle: Same State NG 3)	45.4	159	220			
AGUCCAGCGAAAGCUGGACAAAAGCAUGUACAUGAGGAUCACCCAUGUUCAUGUACAAGCUUUUUGUUCGUCUUAAA [JL mod - D95 - 14] (puzzle: Sensor for hsa-mir-208a)				314	13.4	601
UACAAUCUAUCUGAGGAUAUCAUGAAAAAAACAUGAGGAUCACCCAUGUGCAGGAAAACUGCAUAUGAGAAGGCAGAUAGAUUGA [salish99_SS2_r3_005] (puzzle: Same State 2)				27.4	585	721
UGUUGUAUUACAGGAUAUCUAUUAUUUUUAUUUAGAGAAGGGUAUUCACAUGAGGAUCACCCAUGUAUAUACGAGGAAGAUGUG [JMF's solution 5] (Eterna round: R96, puzzle: Same State NG 1)		60.4				
AGAUAGUGUGGAAAGGAUAUACUGUUGAGGACAUGAGGAUCACCCAUGUGGUAGAGGAGGUAAGGGUAGAAGGUUCGGGAUUGGU [JR_SS@_Sub019] (puzzle: Same State 2)				32.6	34.5	47.1
AAAUAGCAUGGAAACAUGCUAAAAACUGUACAUGAGGAUCACCCAUGUCAUGUGUAGGCUUUUUGUUCGUCUUAUAA [Effort 12] (Eterna round: R96, puzzle: Sensor for hsa-mir-208a)	25.5	12.3	27.8			
AAGAAGACGGACAAGGAUAUGUCAAAGGAAACAUGAGGAUCACCCAUGUGGAGAUUGGAAAAGAAACAGAAGGUGUACGGAGAGA [JR_SS2_Sub007] (puzzle: Same State 2)				10.6	12.3	29.3
GUGGUCAGACAUGAGGAUCACCCAUGUGGAAUAAAUAAGGAAUAGGAUAUCGAAUAUAGGAUAUACGAGAAGGGUUGGUUGGUG (Eterna round: R96, puzzle: Same State NG 3)		80				
AACAAAUACACAGGAUAUACAGUGGCAACCACUGUAGAAGGGUGGGCGGGUUCCAACAUGAGGAUCACCCAUGUACCCAAUAAC [Atbiladi] (Eterna round: R96, puzzle: Same State NG 1)	521	535	882			

Source: the supplement of paper PMC9170038
